# Data taken from IntAct's records for PubMed 29983246.
# B1: Mitochondrial-derived peptide MOTS-c (Homo sapiens), A0A0C5B5G6 (parent)
# chain: MRWQEMGYIFYPRKLR
# partner: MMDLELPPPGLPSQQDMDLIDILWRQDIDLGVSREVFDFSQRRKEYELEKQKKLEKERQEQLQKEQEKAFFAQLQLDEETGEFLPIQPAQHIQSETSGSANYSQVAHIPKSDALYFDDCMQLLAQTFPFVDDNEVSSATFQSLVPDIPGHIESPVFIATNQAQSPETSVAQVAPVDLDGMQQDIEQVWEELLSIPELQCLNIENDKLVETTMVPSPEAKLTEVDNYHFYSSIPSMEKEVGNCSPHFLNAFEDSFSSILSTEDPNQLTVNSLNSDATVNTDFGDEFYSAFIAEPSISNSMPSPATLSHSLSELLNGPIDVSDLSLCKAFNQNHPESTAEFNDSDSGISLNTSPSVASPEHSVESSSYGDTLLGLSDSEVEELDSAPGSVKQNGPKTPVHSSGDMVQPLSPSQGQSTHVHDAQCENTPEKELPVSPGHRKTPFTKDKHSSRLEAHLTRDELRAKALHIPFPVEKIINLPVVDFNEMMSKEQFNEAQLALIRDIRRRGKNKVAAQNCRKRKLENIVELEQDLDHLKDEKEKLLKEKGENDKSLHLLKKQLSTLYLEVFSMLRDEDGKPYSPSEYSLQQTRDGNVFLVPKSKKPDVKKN
# Variants of: B1
# Settings: with nf2l2_human NFE2L2, Q16236
row,Variant,effect of a mutation on the interaction
1,R13A;K14A;L15A;R16A,with no effect
